The results in this text go back to US20200377595A1 (Chugai, published 2020).

Positions count from the first letter of the chain named. In names and notes the source's numbering stands.

The target of assay [1] is biotinylated CD3 epsilon epitope peptide. Briefly: SPR, method of Ref. Ex. 3, one-arm Ab.
The target in the next assay is T1, human CD137 (human, UniProt Q07011 24-186).
T1 construct: soluble Biacore analyte; also called hCD137; recombinant human CD137
Put plainly: ECL, IgG with biotinylated antigen on streptavidin plate, log axis.

Assay [2] deals with T2, biotin labeled human IgG1 Fc (human, UniProt P01857-1 104-330 = IgG part, limits assumed, biotin-labeled).
T2 construct: domain: Fc region; control antigen; also called human Fc
Briefly: bead ELISA, IgG.

The target of the next assay is T3, recombinant human CD3 (human).
T3 construct: also called hCD3
Put plainly: SPR, Ab captured by anti-Fc, 37 C. A general note: SPR reads the build-up and loss of mass on a sensor chip optically.

For assay [3], the target named is T4, biotin-labeled human CD137 fused to human IgG1 Fc fragment (human, biotin-labeled).
T4 construct: also called human CD137-Fc; biotin-human CD137-Fc
Put plainly: bead ELISA; no competitor. A general note: In an ELISA, binding on a coated surface is turned into a signal by an enzyme label.

In assay [4] the target is T5, biotin-labeled cynomolgus monkey CD137 fused to human IgG1 Fc fragment (cynomolgus monkey; human, UniProt Q07011 24-186, limits assumed, biotin-labeled).
T5 construct: also called cyno CD137-Fc; not shown: human IgG1 Fc fragment
T5 chain: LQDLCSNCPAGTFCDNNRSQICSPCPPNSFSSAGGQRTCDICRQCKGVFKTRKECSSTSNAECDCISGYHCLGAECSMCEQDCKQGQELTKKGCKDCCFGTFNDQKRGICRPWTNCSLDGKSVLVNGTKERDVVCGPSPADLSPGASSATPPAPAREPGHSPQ
Put plainly: ELISA, IgG.

B1: CE115HA000 one-arm antibody (antibody, human IgG1, kappa, L234A L235A, N297A)
heavy: QVQLVESGGGVVQPGRSLRLSCAASGFTFSNAWMHWVRQAPGKGLEWVAQIKAKSNNYATYYAESVKGRFTISRDDSKNSLYLQMNSLKTEDTAVYYCRYVHYGAYYGVDAWGQGTTVTVSSASTKGPSVFPLAPSSKSTSGGTAALGCLVKDYFPEPVTVSWNSGALTSGVHTFPAVLQSSGLYSLSSVVTVPSSSLGTQTYICNVNHKPSNTKVDKKVEPKSCDKTHTCPPCPAPEAAGGPSVFLFPPKPKDTLMISRTPEVTCVVVDVSHEDPEVKFNWYVDGVEVHNAKTKPREEQYASTYRVVSVLTVLHQDWLNGKEYKCKVSNKALPAPIEKTISKAKGQPREPQVYTLPPSRCELTKNQVSLSCAVKGFYPSDIAVEWESNGQPENNYKTTPPVLDSDGSFFLVSKLTVDKSRWQQGNVFSCSVMHEALHNHYTQKSLSLSPDYKDDDDK
chain: EPKSSDKTHTCPPCPAPELLGGPSVFLFPPKPKDTLMISRTPEVTCVVVDVSHEDPEVKFNWYVDGVEVHNAKTKPREEQYNSTYRVVSVLTVLHQDWLNGKEYKCKVSNKALPAPIEKTISKAKGQPREPQVCTLPPSRDELTKNQVSLWCLVKGFYPSDIAVEWESNGQPENNYKTTPPVLDSDGSFFLYSKLTVDKSRWQQGNVFSCSVMHEALHNRYTQKSLSLSP
light: DIVMTQSPLSLPVTPGEPASISCRSSQSLVHSNRNTYLHWYQQKPGQAPRLLIYKVSNRFSGVPDRFSGSGSGTDFTLKISRVEAEDVGVYYCGQGTQVPYTFGQGTKLEIKRTVAAPSVFIFPPSDEQLKSGTASVVCLLNNFYPREAKVQWKVDNALQSGNSQESVTEQDSKDSTYSLSSTLTLSKADYEKHKVYACEVTHQGLSSPVTKSFNRGEC
notes: one-arm antibody
In the case of B1, binding in assay [1] was put at a Kd of 110 nM.

B2: dBBDu_011 (antibody, V domains shown)
VH: QVQLVESGGGLVQPGRSLRLSCAASGFTFSNAWMHWVRQAPGKGLEWVAQIKDKSSLYNTYYAPSVKGRFTISRDDSKNSIYLQMNSLKTEDTAVYYCRYVHYGASYGFLFAGYGVDAWGQGTTVTVSS
VL: DIVMTQSPLSLPVTPGEPASISCRSSQSLVHSNRNTYLHWYQQKPGQAPRLLIYKVSNRFSGVPDRFSGSGSGTDFTLKISRVEAEDVGVYYCGQGTQVPYTFGQGTKLEIK
notes: converted to IgG with human H and L chain constant domains; also called clone 011
As to B2, in the assay with human CD137, the binding result was “binds”.

B3: DADU01_3#002 (antibody, IgG1, V domains shown)
VH: QVQLVESGGGLVQPGRSLRLSCAASGFTFSNAWMHWVRQAPGKGLEWVAQIKDKQNLYNAYYAESVKGRFTISRDDSKNSIYLQMNSLKTEDTAVYYCHYVHYASASTVLPAFGVDAWGQGTTVTVSS
VL: B2 VL
notes: IgG1; also called dBBDu124
In assay [2], B3 displayed an RLU of 1920 RLU.

B4: GPC3/CD137xCD3 trispecific antibody (other)
VH 1: QVQLQQWGAGLLKPSETLSLTCAVYGGSFSGYYWSWIRQSPEKGLEWIGEINHGGYVTYNPSLESRVTISVDTSKNQFSLKLSSVTAADTAVYYCARDYGPGNYDWYFDLWGRGTLVTVSS
VL 1: EIVLTQSPATLSLSPGERATLSCRASQSVSSYLAWYQQKPGQAPRLLIYDASNRATGIPARFSGSGSGTDFTLTISSLEPEDFAVYYCQQRSNWPPALTFGGGTKVEIK
VH 2: QVQLVESGGGLVQPGRSLRLSCAASGFTFSNAWMHWVRQAPGKGLEWVAQIKDRANSYNTYYAESVKGRFTISRDDSKNSIYLQMNSLKTEDTAVYYCRYVHYTTYAGSSFSYGVDAWGQGTTVTVSS
VL 2: B2 VL with S28P
VH 3: QVQLVQSGAEVKKPGASVTVSCKASGYTFTDYEMHWIRQPPGEGLEWIGAIDGPTPDTAYSEKFKGRVTLTADKSTSTAYMELSSLTSEDTAVYYCTRFYSYTYWGQGTLVTVSS
VL 3: B2 VL with S28P
notes: mAb AB made by CrossMab and Fab-arm exchange; silent Fc (L235R, G236R, S239K, N297A); also called anti-GPC3/CD137xCD3
For B4, in the assay with recombinant human CD3, the Kd (commonly the equilibrium constant for the complex coming apart) was determined as 19.7 nM; the koff (in general, the first-order rate constant of dissociation) came to 0.00161 s⁻¹; the kon (usually the rate constant with which the complex forms) was 81800 M⁻¹ s⁻¹.

B5: DADU01_3#018 (antibody, IgG1, V domains shown)
VH: B3 VH with K54R, Q55A, L57S, E64P, A104S, S105A, V109L, A112S
VL: B2 VL
notes: IgG1; also called dBBDu123
B5: the RLU in assay [2] came to 1900 RLU.

B6: DADU01_3#001 (antibody, IgG1, V domains shown)
VH: QVQLVESGGGLVQPGRSLRLSCAASGFTFSIAWMHWVRQAPGKGLEWVAQIKDRVNAYEAYYAPSVKGRFTISRDDSKNSIYLQMNSLKTEDTAVYYCRYVHYASYYDLLGYGGVDAWGQGTTVTVSS
VL: B2 VL
notes: IgG1; also called dBBDu_126; dBBDu126
For B6, in assay [2], the RLU stood at 1760 RLU.

B7: DXDU01_3#094 (antibody, IgG1, V domains shown)
VH: B3 VH with Q55G, L57A, N59A, E64P, S107A, T108G, V109G, A112G
VL: B2 VL
notes: IgG1; also called dBBDu121
Regarding B7, the RLU in assay [2] was 2370 RLU.

B8: DXDU01_3#019 (antibody, IgG1, V domains shown)
VH: B6 VH with R54K, A57G, E59T, P64E, S105A, L109V
VL: B2 VL
notes: IgG1; also called dBBDu125
Turning to B8, in assay [2], the RLU was 3260 RLU.

B9: DXDU01_3#051 (antibody, IgG1, V domains shown)
VH: B3 VH with K54R, Q55G, N56Q, L57Q, E64P, T108S, A112G, F113Y
VL: B2 VL
notes: IgG1; also called dBBDu127
Turning to B9, the RLU in assay [2] is 2910 RLU.

B10: dBBDu181 (antibody, IgG1, V domains shown)
VH: B3 VH with V48I, K54R, Q55G, L57N, A60N, E64P, S105T, V109L, P111G, F113Y
VL: B2 VL
notes: IgG1
In assay [3], B10 returned an ELISA signal of 3240. In addition, the binding result in assay [4] is recorded as “binds”.
